Assay results taken from publication PMC8092243, “Cryo-EM Structures of CusA Reveal a Mechanism of Metal-Ion Export” (mBio, 2021).

Molecular target: the molecule itself
Test: cryo-EM structure; CusA in lipid nanodiscs (MSP 1E3D1, E. coli total extract lipid), 0.7 mg/ml (2 uM), incubated with 20 uM Cu(I), 20 mM HEPES-NaOH pH 7.0; four trimer classes (EEE, EEB, EBB, BBB) from one sample

B1: CusA heavy-metal efflux pump (natural protein, E. coli)
chain: MIEWIIRRSVANRFLVLMGALFLSIWGTWTIINTPVDALPDLSDVQVIIKTSYPGQAPQIVENQVTYPLTTTMLSVPGAKTVRGFSQFGDSYVYVIFEDGTDPYWARSRVLEYLNQVQGKLPAGVSAELGPDATGVGWIYEYALVDRSGKHDLADLRSLQDWFLKYELKTIPDVAEVASVGGVVKEYQVVIDPQRLAQYGISLAEVKSALDASNQEAGGSSIELAEAEYMVRASGYLQTLDDFNHIVLKASENGVPVYLRDVAKVQIGPEMRRGIAELNGEGEVAGGVVILRSGKNAREVIAAVKDKLETLKSSLPEGVEIVTTYDRSQLIDRAIDNLSGKLLEEFIVVAVVCALFLWHVRSALVAIISLPLGLCIAFIVMHFQGLNANIMSLGGIAIAVGAMVDAAIVMIENAHKRLEEWQHQHPDATLDNKTRWQVITDASVEVGPALFISLLIITLSFIPIFTLEGQEGRLFGPLAFTKTYAMAGAALLAIVVIPILMGYWIRGKIPPESSNPLNRFLIRVYHPLLLKVLHWPKTTLLVAALSVLTVLWPLNKVGGEFLPQINEGDLLYMPSTLPGISAAEAASMLQKTDKLIMSVPEVARVFGKTGKAETATDSAPLEMVETTIQLKPQEQWRPGMTMDKIIEELDNTVRLPGLANLWVPPIRNRIDMLSTGIKSPIGIKVSGTVLADIDAMAEQIEEVARTVPGVASALAERLEGGRYINVEINREKAARYGMTVADVQLFVTSAVGGAMVGETVEGIARYPINLRYPQSWRDSPQALRQLPILTPMKQQITLADVADIKVSTGPSMLKTENARPTSWIYIDARDRDMVSVVHDLQKAIAEKVQLKPGTSVAFSGQFELLERANHKLKLMVPMTLMIIFVLLYLAFRRVGEALLIISSVPFALVGGIWLLWWMGFHLSVATGTGFIALAGVAAEFGVVMLMYLRHAIEAVPSLNNPQTFSEQKLDEALYHGAVLRVRPKAMTVAVIIAGLLPILWGTGAGSEVMSRIAAPMIGGMITAPLLSLFIIPAAYKLMWLHRHRVRK
notes: CusA, heavy-metal efflux (HME) RND pump of Escherichia coli; the cusA gene cloned into pET15b; the cryo-EM models incorporate residues Ile-5 to Trp-1039; Homotrimer embedded in lipid nanodiscs, in the presence of Cu(I); The membrane scaffold protein MSP 1E3D1 of the nanodisc is not a studied partner; also called CusA membrane protein; CusA trimer
  stoichiometry N: 3
